{"source": "patent US20050095231A1", "target": "artificial receptor (AR) on 293/6H cells: anti-5His single chain antibody fused with the transmembrane domain of the PDGF receptor", "assay": "cell-based or functional assay"}
{"substance": "fiber-fibritin-6His chimera (FF/6H), as carried by Ad5LucFF/6H virions", "values": [{"measurement": "Ad5LucFF/6H-expressed luciferase activities in 293/6H cells expressing AR compared to parental 293 cells (orders of magnitude)", "value": 2}]}
